Molecular target: LRP6 of Super TopFlash (STF, HEK293) cells (UniProt O75581)
Experiment: cell-based or functional assay

LRP6 of Super TopFlash (STF, HEK293) cells, sequence (O75581 20-1613 limits assumed): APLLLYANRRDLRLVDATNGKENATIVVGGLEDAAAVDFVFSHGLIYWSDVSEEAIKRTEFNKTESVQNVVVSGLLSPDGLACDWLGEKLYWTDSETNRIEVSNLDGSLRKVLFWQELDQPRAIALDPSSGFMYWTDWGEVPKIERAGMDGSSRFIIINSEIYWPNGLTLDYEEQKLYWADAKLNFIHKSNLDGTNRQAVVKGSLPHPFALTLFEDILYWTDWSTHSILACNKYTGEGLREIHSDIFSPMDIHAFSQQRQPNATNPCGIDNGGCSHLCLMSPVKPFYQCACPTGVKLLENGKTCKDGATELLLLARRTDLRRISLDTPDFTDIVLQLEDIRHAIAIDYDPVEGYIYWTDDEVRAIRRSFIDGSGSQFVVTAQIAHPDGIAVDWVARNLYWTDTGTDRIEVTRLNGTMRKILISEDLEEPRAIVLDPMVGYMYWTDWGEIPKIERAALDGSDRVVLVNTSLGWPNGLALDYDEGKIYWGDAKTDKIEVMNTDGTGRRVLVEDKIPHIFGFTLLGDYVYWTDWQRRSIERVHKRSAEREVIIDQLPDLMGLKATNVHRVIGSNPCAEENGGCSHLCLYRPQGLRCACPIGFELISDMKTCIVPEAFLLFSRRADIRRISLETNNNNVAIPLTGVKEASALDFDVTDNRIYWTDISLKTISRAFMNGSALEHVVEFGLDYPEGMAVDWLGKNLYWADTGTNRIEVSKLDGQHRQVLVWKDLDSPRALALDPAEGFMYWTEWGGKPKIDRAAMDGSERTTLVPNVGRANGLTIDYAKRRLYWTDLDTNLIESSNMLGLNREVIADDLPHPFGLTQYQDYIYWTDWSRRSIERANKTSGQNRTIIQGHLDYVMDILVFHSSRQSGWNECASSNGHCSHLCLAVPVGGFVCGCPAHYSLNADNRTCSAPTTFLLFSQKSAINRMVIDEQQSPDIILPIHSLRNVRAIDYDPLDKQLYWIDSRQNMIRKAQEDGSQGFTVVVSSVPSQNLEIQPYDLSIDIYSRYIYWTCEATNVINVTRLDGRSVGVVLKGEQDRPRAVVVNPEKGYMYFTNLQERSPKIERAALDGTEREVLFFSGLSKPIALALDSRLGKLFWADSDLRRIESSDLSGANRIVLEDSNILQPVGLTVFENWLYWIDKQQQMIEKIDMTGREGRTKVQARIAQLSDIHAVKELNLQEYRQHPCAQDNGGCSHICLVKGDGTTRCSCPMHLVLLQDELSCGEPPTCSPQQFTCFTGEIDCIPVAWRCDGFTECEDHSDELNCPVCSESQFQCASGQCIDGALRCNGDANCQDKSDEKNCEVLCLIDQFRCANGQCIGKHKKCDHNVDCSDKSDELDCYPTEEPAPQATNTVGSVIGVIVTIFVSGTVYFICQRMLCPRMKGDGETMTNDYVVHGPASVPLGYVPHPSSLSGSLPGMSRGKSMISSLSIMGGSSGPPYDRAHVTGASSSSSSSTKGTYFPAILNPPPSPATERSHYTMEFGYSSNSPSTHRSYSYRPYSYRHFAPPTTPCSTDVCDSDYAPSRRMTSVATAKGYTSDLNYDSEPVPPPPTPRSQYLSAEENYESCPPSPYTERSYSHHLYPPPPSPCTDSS

activity in the Super Top Flash assay against the HSA-DKK2 C2 proteins: 10 fold
Substance: ACE 448 HSA-DKK2 full length (C1+C2) (from UniProt P02768 25-609; Q9UBU2 34-259) (ligand)
